± gives the standard error. Fewer inactive variants are shown than the library holds.
B1: glmS ribozyme (parent)
chain: AUAAAAGCGCCAGAACUACAGAAAUGUAGUUGACGAGGAGGAGGUUUAUCGAAUUUUCGGCGGAUGCCUCCAAA

Variants of: B1
Assay: self-cleavage kobs at 10000 uM GlcN6P; higher = faster cleavage; RNA array
Conditions: with glucosamine-6-phosphate
Method in brief: (§1)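 Tiles bearing barcoded ribozyme variants, transcribed in situ by E. coli RNA polymerase on sequenced MiSeq chips, were imaged over ~14 h at 37 °C using a hybridised Cy3 probe. Glucosamine-6-phosphate was supplied at 40 μM to 10 mM in HEPES/KCl/Mg(OAc)2 buffer. kobs came from one- or two-exponential decay fits to normalised per-tile medians, and weighted Michaelis–Menten fits then provided kcat and KM.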

| Variant | self-cleavage kobs at 10000 uM GlcN6P [s⁻¹] |
| --- | --- |
| G13A G43U U45G | 6.53e-05 ± 2.3e-05 |
| G9U U30C G32A | < 1e-05 |
| G13U A39G C68U | 0.000334 ± 8.3e-05 |
| C10U U31C U57G | < 1e-05 |
| A15U G59U C71G | < 1e-05 |
| C10U A42C A52U | < 1e-05 |
| C8A A15G A39C C70G | < 1e-05 |
| C10G A39U A48C | < 1e-05 |
| A15G U49A G62U | < 1e-05 |
| A12U G44A A52U | 4.81e-05 ± 2e-05 |
| C10U A36C U69G | 0.000116 ± 2.9e-05 |
| G7A C34U A42C | < 1e-05 |
| A14U A36C A48G C61U | < 1e-05 |
| G9U G35C A42C | < 1e-05 |
| A6C U31C U45A U57G | < 1e-05 |
| C16G G29A C67A | 0.000261 ± 8.9e-05 |
| C11U U55G U65A | 4.36e-05 ± 2e-05 |
| A12C U30A U47A G51U | < 1e-05 |
| G9C G32C A36U U46A | < 1e-05 |
| A15G A33C U46G | 4.59e-05 ± 1.3e-05 |
| G13C U30C U47A | 8.1e-05 ± 2.1e-05 |

| Variant | self-cleavage kobs at 10000 uM GlcN6P [s⁻¹] |
| --- | --- |
| A12G G41U C70U | 0.00122 ± 0.00022 |
| C8U G51U U69A | 0.000401 ± 0.00014 |
| C11U A12G U45G C67A | 5.25e-05 ± 1.6e-05 |
| G7U A15U C50G A53U U55G G62U | 7.67e-05 ± 2.5e-05 |
| G9A U65A C67A C70G | 5.56e-05 ± 1.6e-05 |
| A14G A36C U54A G63U | < 1e-05 |
| A15G C16U A39U | 0.00651 ± 0.0013 |
| C16G G37C G62A | < 1e-05 |
| A12G G29A G63A | < 1e-05 |
| A14U C50G G62A A64G | 0.000115 ± 2.4e-05 |
| C10U A39G A42U U49A A53C U69G | < 1e-05 |
| A6U C50G A53C C71A | 4.1e-05 ± 2e-05 |
| A14G G43U U47A C58A C67A | 7.13e-05 ± 1.3e-05 |
| G7C C34A A48G U56G C71U | < 1e-05 |
| A14G C50G C70U | 9.53e-05 ± 1.4e-05 |
| G9C C10G A52U C71A | < 1e-05 |
| G7A A53C G63A | < 1e-05 |
| G13A G35U G37C | < 1e-05 |
| A12G A42G U47C | 0.000197 ± 3.9e-05 |
| G7A G41A A53C | < 1e-05 |
| C10A A12G A52G C70A | 6.91e-05 ± 1.7e-05 |

| Variant | self-cleavage kobs at 10000 uM GlcN6P [s⁻¹] |
| --- | --- |
| G7C A15C G41A | < 1e-05 |
| C10U G13C G63U | < 1e-05 |
| G9A G43A U57A U65A U69A C71A | < 1e-05 |
| A12U U30A A39U U55C | 0.0143 ± 0.0028 |
| A12G U45A C71U | 0.00191 ± 0.0004 |
| C11A A42G C67U | 4.66e-05 ± 1.8e-05 |
| A12G A14G G59C | 0.000119 ± 3.7e-05 |
| C11U A15G C16U C50G U54G U56A U69C | < 1e-05 |
| G9A G60U C70G | < 1e-05 |
| A14G A15G A48C | 0.00148 ± 0.00029 |
| G13C U47A | 7.19e-05 ± 9.5e-06 |
| C10A C11A G44A | < 1e-05 |
| C11A A33G C50U C58U G59U G63A | < 1e-05 |
| C11A A42U G51U G60C | < 1e-05 |
| G13U U30A G43C | < 1e-05 |
| C11U U45A | 0.002 ± 0.00051 |
| C11G A14C G43U | < 1e-05 |
| C8U G13U A15U C50U | < 1e-05 |
| G7U C8G C16A | < 1e-05 |
| C16A G32U A33U C50G C67U | 0.000275 ± 9.8e-05 |
| A12U G40C G41U | 6.81e-05 ± 1.9e-05 |

| Variant | self-cleavage kobs at 10000 uM GlcN6P [s⁻¹] |
| --- | --- |
| A14G G29U G40C | 0.00075 ± 0.00013 |
| C8U G9U G37A C67G | < 1e-05 |
| G7C G62C | < 1e-05 |
| C11G G35C G63U C67A | < 1e-05 |
| A6U C10U G44A C50U | < 1e-05 |
| C8G G32U G66U | < 1e-05 |
| A6G G9U G35U G38A G40A | < 1e-05 |
| A14G U47A G59U C70U | 9.51e-05 ± 1.8e-05 |
| A6G U45A U57G | < 1e-05 |
| G7U A48G C50G C61G | 0.000895 ± 0.00024 |
| G9A A53G | 3.28e-05 ± 1.3e-05 |
| C10A G37C G51A | < 1e-05 |
| A6G U30A C34U C67G C71G | 7.35e-05 ± 3.3e-05 |
| C10U G13A G40U | < 1e-05 |
| C8U U45A A48G C70G | < 1e-05 |
| C10G A14U C16A U54G C61U G62U | < 1e-05 |
| C8U A48U C71U | < 1e-05 |
| C8U C16A A39C C58U A64G C67G | < 1e-05 |
| A15G G32C G59C | < 1e-05 |
| A6G C10A U30C U49A | < 1e-05 |

Variants of: B1
Assay: self-cleavage kobs at 2500 uM GlcN6P; higher = faster cleavage; RNA array
Conditions: with glucosamine-6-phosphate
Method in brief: as §1

| Variant | self-cleavage kobs at 2500 uM GlcN6P [s⁻¹] |
| --- | --- |
| C58U U65A C68G | 0.000102 ± 3.1e-05 |

Reference: the supplement of paper PMC7125110
